Experimental data from the supplement of paper PMC10567573.

B1: SMTNL2 (parent)
chain: AFTMAENLANCERLIEVEDMMVMG

Variants of: B1
Experiment: protein stability index of a GFP-peptide fusion (GPS, HEK-293T) (PSI 1-6); higher = more stable
Details: c terminus: a fixed tail appended
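Note: lentivirally expressed fusions sorted by FACS into six bins by GFP to DsRed ratio, PSI derived from sequencing read proportions per bin multiplied by bin number.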

Protein stability index, by site and new letter:
L14: E 3.64, D 4.59, V 2.47, Q 3.12, H 3.86, G 3.96, M 2.34, N 4.2, K 3.89, S 3.08, W 1.59, P 3.69, R 3.4, C 3.33, A 3.33
E12: H 2.42, K 2.46, T 2.06, A 1.75, Y 2.13, W 2.71, S 2.92, F 2.22, R 1.71, D 3.1, Q 2.41, P 2.37
E16: N 2.17, S 1.89, T 1.72, P 2.79, C 1.9, D 3.2, M 2.92, A 1.99, K 1.89
V22: G 2.54, L 2.18, C 2.19, I 1.78, S 1.99, Q 2.82, R 2.46, N 2.44, W 1.77, Y 2.07, E 3.18, M 2.19, H 1.85, P 2.65, D 2.55
A9: H 2.34, E 3.65, F 1.81, S 2.64, P 3.84, W 1.39, Q 2.91, I 1.89, K 2.3, G 3.16, D 4.18, T 2.85, M 2.57, Y 2, V 2.71
M21: L 2.39, F 2.56, G 2.12, V 2.18, E 4.11, I 1.98, K 2.95, R 2.23, C 2.14, P 3.27, T 2.68, Y 2.22, A 2.37, H 3.02, N 3.13, W 1.9, D 3.83, S 2.65
V17: G 3.71, H 2.35, C 1.98, P 4.04, D 3.57, W 2.09, M 2.04, F 2.37, S 3.25, Y 2.47, T 3.14, K 2.38, N 2.07, I 2.16
F2: D 4.48, P 4.28, W 2.07, N 3.95, L 2.27, C 3.14, Q 3.22, G 4, V 3.18, Y 2.22, E 4.17, M 2.08, R 2.4, I 2.27
E6: D 2.8, H 2.09, F 2.45, Q 1.3, P 2.89, W 1.81, Y 2.76, C 2.27, G 2.15, S 1.65, I 2.69, N 1.96, M 4.33, T 1.74, A 1.83
I15: Y 2.95, D 4.49, T 4.25, P 4.02, R 3.89, Q 4.4, C 3.64, N 3.94, H 3.95, W 2.8, V 3.42, K 3.9, F 3.39, E 4.99
L8: Y 3.22, V 3.14, H 3.85, M 3.3, P 4.09, K 3.98, F 3.78, I 2.79, D 4.36, W 2.83, E 4.29, A 4.35, R 3.38, G 4.02, C 3.81, T 3.92
M4: C 3.13, Q 4.04, S 4.04, R 3.22, W 2.27, Y 3.13, L 1.63, T 3.78, F 2.51, I 2.96, K 3.77, G 4.19, H 3.81, N 3.76
M23: S 2.69, I 1.47, Y 1.88, D 3.57, N 2.97, L 1.89, G 1.7, A 2.61, Q 3.21, E 3.69, R 1.97, V 2.38, T 1.8, K 2.8
T3: A 2.06, W 1.74, C 1.85, S 2.12, E 2.15, K 2.03, P 3.15, L 1.77, G 2.91, V 1.79, H 2.24, N 2.42
G24: C 1.52, R 2.47, Y 1.27, S 2, H 1.59, Q 2.71, A 2.03, D 2.33, N 2.45, E 2.93, F 2.22, L 1.74, K 2.31, T 1.68
A1: E 2.1, L 1.75, V 2.06, I 1.76, K 2.58, R 2.84, S 2.46, W 1.86, D 2.47, F 1.86, H 2.62, Q 3.22, Y 2.2, M 1.61
R13: H 3.03, N 3.75, A 2.33, S 3.15, P 3.62, Y 2.17, D 4.24, F 1.8, T 2.99, G 3.46, Q 3.17, V 1.49, K 2.67, C 2.08, M 2.56
N7: L 2.48, A 2.83, R 2.25, V 2.66, F 1.78, S 2.45, M 1.67, Q 2.38, Y 1.62, H 1.92, T 2.62, G 2.59, C 3.03, P 3.41, W 1.49, K 2.43
E18: I 1.58, M 1.97, W 1.02, H 2.85, L 2.22, D 2.9, P 3.06, Q 2.18, F 3.08, G 2.52, K 2.03
A5: P 3.44, M 2.58, F 2.07, R 1.93, N 2.7, Q 2.05, I 3.19, W 1.81, H 2.01, K 2.51, D 3.78, Y 2.71, L 2.48, E 4.16, C 2.27
C11: T 2.21, P 3.49, G 3.23, F 2.56, K 3.59, R 3.34, M 2.95, E 3.9, H 3.63, D 4.07, W 2.21, Y 2.51, I 2.3, S 2.37
D19: G 2.52, Q 2.06, N 2.63, T 1.94, P 1.71, S 1.62, E 1.48, Y 2.48, H 1.28, R 1.39, W 4.57, F 2.37
M20: W 2.51, Y 1.72, P 3.77, E 4.02, S 2.27, D 4.75, K 2.91, H 2.98, G 2.47, I 2.03, N 3.03, V 2.68, T 3.4
N10: G 2.79, D 2.01, Y 2.07, E 2.01, I 1.86, A 1.84, F 2.53, K 2.48, T 2.19, Q 3.5, C 2, R 2.24, P 3.37
